Assay results from the RNAGym collection of RNA variant scans (doi:10.7554/elife.90254).

B1: LINE1-mini (parent)
chain: GGCAGAGCUCAACACAGCGUGGCAAAGUGGCUGUGGCUAGACUGCC

Variants of: B1
Assay: self-cleavage, relative activity (ratio to wild type); higher = more cleavage; in vitro, sequencing; the parent is a self-cleaving ribozyme

In order of rising self-cleavage:
1. G1C C31G  0.01
2. G1C U34A  0.01
3. G1C G36C  0.01
4. G1C A11G  0.01
5. G1C A11C  0.01
6. G1C A25G  0.01
7. G1C C31A  0.02
8. G1C U43A  0.02
9. G1C U28C  0.02
10. G1C A6G  0.02
11. G1C U34G  0.02
12. G1C C10A  0.02
13. G1A U43G  0.02
14. G1C A12G  0.02
15. G1C A12C  0.02
16. G1C C37U  0.02
17. G1C C37G  0.02
18. G1C C37A  0.02
19. G1U A11G  0.02
20. G1U U9C  0.02
21. G1C G5C  0.02
22. G1C G5U  0.02
23. G1C A41G  0.02
24. G1C A41C  0.02
25. G1C C15A  0.02
26. G1C U43C  0.03
27. G1C U34C  0.03
28. G1C C10G  0.03
29. G1C G36U  0.03
30. G1U A11C  0.03
31. G1U G33C  0.03
32. G1U U9G  0.03
33. G1U U9A  0.03
34. G1C A11U  0.03
35. G1C C15G  0.03
36. G1U C31G  0.04
37. G1C C31U  0.04
38. G1C U28A  0.04
39. G1C A6C  0.04
40. G1A C37G  0.04
41. G1C C10U  0.04
42. G1U G5C  0.04
43. G1C G30C  0.04
44. G1U G33A  0.04
45. G1C C13G  0.04
46. G1C C13U  0.04
47. G1U A16U  0.05
48. G1U A41C  0.05
49. G1A U43A  0.05
50. G1C G36A  0.05
51. G1C C13A  0.05
52. G1C G5A  0.05
53. G1A C42G  0.06
54. G1A C42A  0.06
55. G1C G30U  0.06
56. G1C A12U  0.06
57. G1U C8G  0.06
58. G1C A4U  0.06
59. G1U A4C  0.06
60. G1U G33U  0.06
61. G1C G21C  0.06
62. G1A G40C  0.07
63. G1U C31U  0.07
64. G1U C31A  0.07
65. G1C U28G  0.07
66. G1A C37A  0.07
67. G1C A4G  0.07
68. G1U A11U  0.07
69. G1C C23U  0.07
70. G1U G35C  0.07
71. G1C C15U  0.07
72. G1U A16C  0.08
73. G1A C37U  0.08
74. G1C A26C  0.08
75. G1C G2U  0.08
76. G1U C8A  0.08
77. G1C C23G  0.08
78. G1U G35A  0.08
79. G1C A25U  0.08
80. G1C A26G  0.09
81. G1U G5U  0.09
82. G1A U32A  0.09
83. G1A U32G  0.09
84. G1A G40U  0.1
85. G1U A41G  0.1
86. G1A G36U  0.1
87. G1A U9C  0.1
88. G1C A41U  0.1
89. G1C A25C  0.1
90. G1C C3G  0.1
91. G1A G40A  0.11
92. G1U G19U  0.11
93. G1A U32C  0.11
94. G1A U43C  0.11
95. G1A G36C  0.11
96. G1U G44A  0.11
97. G1C A26U  0.12
98. G1C G22A  0.12
99. G1U C8U  0.12
100. G1C A4C  0.12
101. G1C U43G  0.13
102. G1C G2A  0.13
103. G1C A6U  0.14
104. G1U G44C  0.14
105. G1C G2C  0.15
106. G1C C45U  0.15
107. G1U G44U  0.15
108. G1A C42U  0.16
109. G1C C45G  0.16
110. G1C C45A  0.16
111. G1C C23A  0.16
112. G1C G22U  0.17
113. G1C G21U  0.17
114. G1U G35U  0.17
115. G1C G30A  0.18
116. G1A G36A  0.18
117. G1C C3U  0.18
118. G1C G22C  0.19
119. G1C C3A  0.19
120. G1U G19C  0.2
121. G1U G5A  0.2
122. G1U G29C  0.2
123. G1U A16G  0.22
124. G1U U20C  0.22
125. G1U A4U  0.22
126. G1A U9G  0.22
127. G1A G2C  0.24
128. G1U C3G  0.25
129. G1U A4G  0.25
130. G1A U28A  0.26
131. G1U C3U  0.27
132. G1A G29C  0.28
133. G1A G44A  0.28
134. G1A G7U  0.3
135. G1U U20A  0.31
136. G1U A26G  0.31
137. G1U A26C  0.32
138. G1U A41U  0.33
139. G1A C45G  0.34
140. G1A U9A  0.34
141. G1U A26U  0.34
142. G1U G29U  0.38
143. G1A U28C  0.39
144. G1C G21A  0.42
145. G1U G29A  0.44
146. G1A G44C  0.47
147. G1A G2U  0.47
148. G1A G7A  0.51
149. G1U G19A  0.57
150. G1A G7C  0.6
151. G1A U28G  0.6
152. G1A G29A  0.63
153. G1A C45A  0.82
154. G1A G30A  0.85
155. G1U C3A  0.85
156. G1A G27C  0.86
157. G1A G44U  0.91
158. G1A G29U  1.1
159. G1A C45U  1.19
160. G1A G30C  1.51
161. G1A G30U  1.59
162. G1A G27A  1.81
163. G1A G2A  1.83
164. G1A G27U  1.95
165. G1A C46A  2.61
166. G1A C46G  2.92
167. G1A C46U  2.95
